Experiments:
[1] = format: in vivo; settings: for increase in Vd when co-infused with heparin: 5 μg protein in 5 μl, 0.2 μl/min, with heparin (18 μg) vs infused alone; for Vd/Vi ratio: low volume (5 μl) infusion, apparently with heparin co-infusion (FIG. 2b)
Method: (§1) The animals were anesthetized with ketamine (10 mg/kg) and xylazine (3 mg/Kg) via intraperitoneal injection and placed in a Kopf small animal stereotactic frame. A sagittal incision was made through the skin and a burr hole was placed into the skull with a twist drill. The cannula coordinates were: 0.5 mm anterior to bregma, 2.8 mm to the right of bregma, and 5 mm below the dura.
(§2) The infusion apparatus consisted of a hydraulic drive serially connected to a syringe pump. This depressed the plunger of one of two 250 μl Hamilton syringes connected by cannulas made from polyetheretherketone (PEEK) tubing (inner diameter 250 μm) and filled with distilled water. One of the 250 μl Hamilton syringes was secured to the stereotactic frame and was contiguous with an infusate-filled 10 or 50 μl Hamilton syringe. Since the system was non-compliant (zero dead space), the compression of the syringe pump of the infusion apparatus led to the measured release of infusate from the 10 or 50 μl Hamilton syringe in a uniform fashion. All infusions were performed with a 32 g cannula at 0.2 μl/min (6).
The vehicle was 4% mannitol in 10 mM HEPES. […]
(§3) The brains were cut into 40 μm serial coronal sections on a cryostat. Frozen sections were collected in a series in antifreeze solutions and stored at −70° C. Every 12th section was stained for immunohistochemistry.
Sections were washed in phosphate buffered saline (PBS) and incubated in 3% H2O2 for 20 minutes to block endogenous peroxidase activity. […] The sections were then incubated for 1 hour in biotinylated anti-mouse IgG secondary antibody (Vector Labs, 1:300). Antibody binding was visualized with streptavidin horseradish peroxidase (Vector Labs, 1:300) and VIP chromogen (Vector Labs). Sections were then coverslipped and examined under light microscopy. Vd was measured using NIH image analysis software.
The volume of distribution of BSA and the GDNF family of trophic factors was analyzed using a Macintosh-based image analysis system. Images of stained tissue slices were captured by a CCD camera using Adobe Photoshop software. Using NIH Image Analysis software, the area of distribution of infused protein in each tissue section was automatically determined using a threshold of 50% of the maximal stained optical density. The sum of the areas of infusion was used to determine the Vd in each striatum.

dopamine utilization = assay: Dopamine utilization: striatal DOPAC/DA ratio by HPLC 4 days after intrastriatal infusion; format: in vivo, rat
Method: In the study analyzing dopamine metabolism following trophic factor administration, the animals were infused with 5 μg of NTN in 5 μl of vehicle with and without heparin (2.5 units) and sacrificed after 4 days. The vehicle was 4% mannitol in 10 mM HEPES. After completing infusion, the cannula was withdrawn at 1 mm/minute. Following the procedure, the animals used for immunohistochemical analysis were intracardially perfused with 4% paraformaldehyde. Brains were harvested and immersed overnight in 4% paraformaldehyde. The brains were cryoprotected through immersion in graded sucrose solution (20-30%) and frozen at […]. Animals to be used in HPLC studies were euthenized and the brains were harvested and fresh frozen at −70°.
Animals were sacrificed 4 days after intrastriatal infusion of 5 μl vehicle with 18 μg of heparin, 5 μg of NTN in 5 μl of vehicle or 5 μg of NTN in 5 μl of vehicle with 18 μg of heparin. After decapitation, the brains were rapidly removed and chilled in ice for 4 minutes. They were sliced 1 mm anterior and 2 mm posterior to the injection site using a chilled plastic brain mold. For biochemical studies, frozen punches from the striatum were taken from the injected and uninjected sides for comparison. […] Dopamine (DA), serotonin (5-HT) and their metabolites were measured by HPLC using Ultrasphere C-18 ion pair column, 5μ, 4.6 mm×25 cm (Beckman 235329): a Waters 717 plus autosampler, Waters 510 pump at 0.8 ml/min, and an amperometric electrochemical detector (EiCom CB-100) set at 0.78 V. The mobile phase contained 2-1 deionized water, 2.8 g L-heptanesulfonic acid sodium salt, 0.17 g EDTA, 20 ml triethylamine and 50 ml acetonitrile, pH was adjusted to 2.6 with 13 ml of 85% phosphoric acid. The results were recorded and analyzed with Waters Millenium 2010 Chromatography Manager software. Protein concentration in the tissue pellet was determined using the BCA Protein Assay Kit (Pierce #23225). The results are expressed as nM/hr/mg of protein.

[2] = Histological examination of infused brains for hemorrhage and tissue damage; format: in vivo, rat; settings: heparin 0.5 units/μl, low volume studies
Method: Studies were conducted to establish whether CED could be used to distribute trophic factors within the GDNF family over volumes that might be relevant to larger primate brains. High volume infusions (20 μl) of NTN with heparin were able to cover significant volumes of the rat brain (FIG. 3). […] Maximum Vd attained following co-infusion with heparin was 37.3 mm^3, compared to a maximum Vd of 11.0 mm^3 in control animals (FIG. 3). At this infusion volume, in 4 out of 6 animals in which NTN was co-infused with heparin, the striatum was completely stained, as opposed to none of the subjects infused with NTN alone. There was no evidence of hemorrhage (H&E stain) in any of the specimens following the high volume infusions.
All brains had well demarcated areas of antibody staining following immunohistochemistry. In all brains, there was no evidence of tissue damage, with the exception of the needle track and some non-specific drill-induced cortical lesions. There was no evidence of hemorrhage in any animal at 0 or 4 days after infusion.
This emphasizes the importance of receptor binding in drug distribution as well.

[3] = CED high volume (20 μl) NTN intrastriatal infusion, volume of distribution by immunohistochemistry; format: in vivo, rat
Method: as §1, §2
The vehicle was 4% mannitol in 10 mM HEPES. In the high volume experiment, 50 μg of NTN in 20 μl of vehicle with (n=6) and without (n=6) heparin (71 μg) was delivered into the striatum.
as §3
Sections were washed in phosphate buffered saline (PBS) and incubated in 3% H2O2 for 20 minutes to block endogenous peroxidase activity. […] Vd was measured using NIH image analysis software.
The volume of distribution of BSA and the GDNF family of trophic factors was analyzed using a Macintosh-based image analysis system. […] Using NIH Image Analysis software, the area of distribution of infused protein in each tissue section was automatically determined using a threshold of 50% of the maximal stained optical density. […]

With Artemin the “increase in Vd when co-infused with heparin” value (“increase in Vd when co-infused” below) [1] was “greater than 10 fold”.

For heparin [reference compound], the “DOPAC/DA levels compared to the uninjected (left) striatum” value (dopamine utilization; 5 μl vehicle with 18 μg heparin, 4 days) was “no change” and the “gross or microscopic hemorrhage” value [2] was “no evidence of gross or microscopic hemorrhage”.

B1: GDNF (protein, UniProt P39905 78-211, looked up)
Glial cell line-derived …: SPDKQMAVLPRRERNRQAAAANPENSRGKGRRGQRGKNRGCVLTAIHLNVTDLGLGYETKEELIFRYCSGSCDAAETTYDKILKNLSRNRRLVSDKVGQACCRPIAFDDDLSFLDDNLVYHILRKHSAKRCGCI
notes: glial cell line-derived neurotrophic factor, trophic factor provided by Genentech
For B1, the “increase in Vd when co-infused” value [1] was 5 fold, the Vd/Vi ratio [1] was 5.0 and the “effect of heparin co-infusion on Vd” value ([1]; rat, in vivo) was “significantly increased”.

B2: Neurturin (protein, UniProt Q99748 96-197, looked up)
Neurturin: ARLGARPCGLRELEVRVSELGLGYASDETVLFRYCAGACEAAARVYDLGLRRLRQRRRLRRERVRAQPCCRPTAYEDEVSFLDAHSRYHTVHELSARECACV
notes: trophic factor of the GDNF ligand family
In the case of B2, the “increase in Vd when co-infused” value [1] is reported as 7 fold, the Vd/Vi ratio [1] is reported as 4.6 and the “animals in which the striatum was completely stained” value ([3]; 20 μl infusion, n=6 per group) is reported as “none”. For the same molecule, the “Maximum Vd” value ([3]; rat, in vivo) was 11.0 mm^3, the Vd ([3]; rat, in vivo) was 7.7+/−1.1 mm^3 and the DOPAC/DA ratio (dopamine utilization; 5 μg NTN in 5 μl, with or without heparin 18 μg, 4 days after infusion, mean +/- S.E.) was 146+/−14.2 percentage of the uninjected h. For the same molecule, the “DOPAC/DA ratio compared to the vehicle+heparin group” value (dopamine utilization; 4 days after right striatal infusion, Fisher test) was “significantly increased”.
